“And” between values parts separate entries of the source, which are not always exact repeats. Equal values may be shown once.
B1: rcSso7d.H6BA.3 (designed binder)
chain: MATVKFTYQGEEKQVDISKIKRVIRAGQSIIFSYDEGGGAIGHGWVSEKDAPKELLQMLEKQ
B2: rcSso7d.H2BA.1 (designed binder)
chain: MATVKFTYQGEEKQVDISKIKRVIRYGQAIAFAYDEGGGARGYGWVSEKDAPKELLQMLEKQ
B3: rcSso7d.H7.1 (designed binder)
chain: MATVKFTYQGEEKQVDISKIKYVYRWGQRIWFRYDEGGGAIGRGRVSEKDAPKELLQMLEKQ
B4: rcSso7d.H1BA.6 (designed binder)
chain: MATVKFTYQGEEKQVDISKIKDVWRWGQWIDFIYDEGGGADGWGRVSEKDAPKELLQMLEKQ
B5: rcSso7d.H4.4 (designed binder)
chain: MATVKFTYQGEEKQVDISKIKSVKRNGQSIDFDYDEGGGAAGEGKVSEKDAPKELLQMLEKQ
B6: rcSso7d.H4.9 (designed binder)
chain: MATVKFTYQGEEKQVDISKIKYVKRIGQYISFNYDEGGGAHGHGIVSEKDAPKELLQMLEKQ
B7: rcSso7d.Rv1656 (yeast-surface displayed) (designed binder)
chain: MATVKFTYQGEEKQVDISKIKWVRRYGQYIGFSYDEGGGAWGKGYVSEKDAPKELLQMLEKQ
B8: rcSso7d.H1BA.1 (designed binder)
chain: MATVKFTYQGEEKQVDISKIKHVRRWGQYIIFAYDEGGGAYGGGWVSEKDAPKELLQMLEKQ
B9: rcSso7d.H6BA.2 (designed binder)
chain: MATVKFTYQGEEKQVDISKIKWVYRWGQYIIFAYDEGGGAAGKGSVSEKDAPKELLQMLEKQ
B10: rcSso7d.H1BA.4 (designed binder)
chain: MATVKFTYQGEEKQVDISKIKNVYRWGQYIIFSYDEGGGAYGWGWVSEKDAPKELLQMLEKQ
B11: rcSso7d.H1BA.5 (designed binder)
chain: MATVKFTYQGEEKQVDISKIKYVRRYGQYIGFIYDEGGGAWGKGYVSEKDAPKELLQMLEKQ
B12: rcSso7d.H6BA.1 (designed binder)
chain: MATVKFTYQGEEKQVDISKIKWVYRYGQYIIFGYDEGGGAKGNGYVSEKDAPKELLQMLEKQ
B13: rcSso7d.H4.6 (designed binder)
chain: MATVKFTYQGEEKQVDISKIKSVHRYGQKIYFDYDEGGGAIGKGHVSEKDAPKELLQMLEKQ
B14: rcSso7d.H4.3 (designed binder)
chain: MATVKFTYQGEEKQVDISKIKHVWRRGQNIYFRYDEGGGAWGAGAVSEKDAPKELLQMLEKQ
B15: rcSso7d.H4.5 (designed binder)
chain: MATVKFTYQGEEKQVDISKIKGVYRHGQSIWFRYDEGGGAWGWGIVSEKDAPKELLQMLEKQ
B16: rcSso7d.H4.8 (designed binder)
chain: MATVKFTYQGEEKQVDISKIKDVWRHGQHIIFSYDEGGGAYGAGHVSEKDAPKELLQMLEKQ
B17: rcSso7d.H4.7 (designed binder)
chain: MATVKFTYQGEEKQVDISKIKYVWRHGQHIAFRYDEGGGAHGWGSVSEKDAPKELLQMLEKQ

The binders below were run against fluorescent reagents used to detect binding activity.
With B1 the Secondary control signal was 1.7%.
B2 showed a Secondary control signal of 3.2%.
Work on B3 yielded a Secondary control signal of 1.8%.
B4 was tested, and the Secondary control signal was 0.5%.
With B5 the Secondary control signal was 0%.
Work on B6 yielded a Secondary control signal of 0%.
In the case of B7, the Secondary control signal is reported as 0.6% and 2.3% and 0%.
B8 showed a Secondary control signal of 6%.
For B9, the Secondary control signal was 7.3%.
Binder B10 has a Secondary control signal of 0%.
B11 gave a Secondary control signal of 0.9%.
B12 showed a Secondary control signal of 1.5%.
Work on B13 yielded a Secondary control signal of 0%.
B14 was tested, and the Secondary control signal was 0%.
For B15, the Secondary control signal was 0.6%.
Binder B16 has a Secondary control signal of 0%.
With B17 the Secondary control signal was 0%.

Molecular target: fluorescent reagents used to detect binding activity
Remark: another data set of the same source
Binder B7 has a Quadrant % Q1 of 0.1%.

— patent US20190113512A1
